Consider one substance from patent US20150093386A1.

Common to all, as to experiment: cell-based or functional assay
For assay [1], the target named is EGFR overexpressed on U87 MG EGFR cells (UniProt P00533).
Assay [2] concerns the target endogenous EGFR at low level on U87 MG cells (human) (UniProt P00533).
For assay [3], the target named is EGFRvIII (EGFR with deletion of exons 2-7) on U87 MG-EGFRvIII cells (human) (UniProt P00533).

In assay [1], humanized monoclonal antibody ch806 showed an EC50 values of cytotoxicity on MG-EGFR cells of 6.48 µM; a cytotoxicity % at 0.0002 nM, U87 MG EGFR cells with PBMC of 1.89%; a cytotoxicity % at 0.002 nM, U87 MG EGFR cells with PBMC of 0.61%; a cytotoxicity % at 0.02 nM, U87 MG EGFR cells with PBMC of 1.31%. In assay [1], the cytotoxicity % at 0.2 nM, U87 MG EGFR cells with PBMC turned out to be 0.37%; the cytotoxicity % at 2 nM, U87 MG EGFR cells with PBMC is 0.49%; the cytotoxicity % at 20 nM, U87 MG EGFR cells with PBMC is 4.92%. In assay [2], this substance showed a cytotoxicity % at 0.0002 nM, U87 MG cells with PBMC of 0.96%; a cytotoxicity % at 0.002 nM, U87 MG cells with PBMC of 0.71%; a cytotoxicity % at 0.02 nM, U87 MG cells with PBMC of 0.71%; a cytotoxicity % at 0.2 nM, U87 MG cells with PBMC of 0.07%. Besides, in assay [2], the cytotoxicity % at 2 nM, U87 MG cells with PBMC was found to be 0.28% and the cytotoxicity % at 20 nM, U87 MG cells with PBMC worked out at 4.18%. In assay [3], this substance returned an EC50 values of cytotoxicity on U87 MG-EGFRvIII cells of 0.0408 µM; a cytotoxicity % at 0.0002 nM, U87 MG EGFRvIII cells with PBMC of 0.41%; a cytotoxicity % at 0.002 nM, U87 MG EGFRvIII cells with PBMC of 0.62%; a cytotoxicity % at 0.02 nM, U87 MG EGFRvIII cells with PBMC of 0.76%. In assay [3], this substance returned a cytotoxicity % at 0.2 nM, U87 MG EGFRvIII cells with PBMC of 15.6%; a cytotoxicity % at 2 nM, U87 MG EGFRvIII cells with PBMC of 22.3%; a cytotoxicity % at 20 nM, U87 MG EGFRvIII cells with PBMC of 36.3%.
